2 molecules from article PMC11971276 (Nature Communications, 2025) can be followed below.

Experiment [1] deals with human CCN2 (R&D Systems) (human) (UniProt P29279). Nature of the experiment: electrochemiluminescence assay.
A further experiment addresses recombinant CCN2 (UniProt P29279). Nature of the experiment: ELISA. For orientation: In an ELISA, binding on a coated surface is turned into a signal by an enzyme label.
Experiment [2] addresses biotinylated human CCN2 (human) (UniProt P29279). Nature of the experiment: competition electrochemiluminescence assay.
For experiment [3], the target named is Human CCN2 tagged with human Fc (human) (UniProt P29279). Nature of the experiment: SPR. Background: SPR reads the build-up and loss of mass on a sensor chip optically.
The target in another experiment is biotinylated human CCN2 (Homo sapiens, UniProt P29279, biotin (sites not given)). Nature of the experiment: competition electrochemiluminescence assay.
Sequence of biotinylated human CCN2 (P29279 27-349): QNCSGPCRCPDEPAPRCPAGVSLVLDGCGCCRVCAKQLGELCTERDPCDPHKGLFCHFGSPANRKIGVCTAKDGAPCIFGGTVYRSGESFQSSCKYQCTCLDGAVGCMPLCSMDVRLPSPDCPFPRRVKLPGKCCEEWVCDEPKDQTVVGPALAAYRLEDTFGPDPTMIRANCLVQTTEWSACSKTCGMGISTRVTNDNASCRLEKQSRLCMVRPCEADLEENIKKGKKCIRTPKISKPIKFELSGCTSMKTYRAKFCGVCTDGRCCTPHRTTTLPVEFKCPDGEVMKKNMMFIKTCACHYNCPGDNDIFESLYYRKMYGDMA

Sequence of Human CCN2 tagged with human Fc (human) (P29279 27-349): as above
Sequence of recombinant CCN2 (P29279 27-349): as above
Sequence of human CCN2 (R&D Systems) (human) (P29279 27-349): as above
Sequence of biotinylated human CCN2 (human) (P29279 27-349): as above

PRS-220 (designed binder) gave a relative potency [%], post-nebulization in experiment [1] of 100%. Besides, the EC50 in the experiment with recombinant CCN2 was determined as 0.39 nM. Moreover, in experiment [2], the IC50 stood at 0.35 nM. In addition, in experiment [3], the Kd is 0.06 nM, the fold higher affinity than pamrevlumab is 364 fold and the fold slower dissociation than pamrevlumab was determined as 169 fold.

B1: pamrevlumab (antibody, V domains shown)
VH: EGQLVQSGGGLVHPGGSLRLSCAGSGFTFSSYGMHWVRQAPGKGLEWVSGIGTGGGTYSTDSVKGRFTISRDNAKNSLYLQMNSLRAEDMAVYYCARGDYYGSGSFFDCWGQGTLVTVSS
VL: DIQMTQSPSSLSASVGDRVTITCRASQGISSWLAWYQQKPEKAPKSLIYAASSLQSGVPSRFSGSGSGTDFTLTISSLQPEDFATYYCQQYNSYPPTFGQGTKLEIK
In the experiment with biotinylated human CCN2, B1 returned an IC50 of 1.14 nM.

In general, EC50 refers to the concentration that produces a half-maximal response. In general, IC50 refers to the concentration needed to halve the response being measured. High values mean weaker potency in that assay, low ones greater potency in that assay. For orientation: Kd means the equilibrium constant for the complex coming apart. Low values mean tighter binding, high ones weaker binding.
